Test results as given in publication PMC4993509 (PLoS ONE, 2016).

Target: the molecule itself
Experiment: SEC-MALS; Superdex 200 HR 10/30 coupled to three-angle light scattering (mini-DAWN EOS) and refractive index detector, flow 0.2 ml/min

B1: C-terminal histidine-tagged SYCP1 CC (coiled-coil domain of human synaptonemal complex protein 1, residues 662-801) (domain or fragment, UniProt Q15431 662-801, looked up)
chain: DTYQKEIEDKKISEENLLEEVEKAKVIADEAVKLQKEIDKRCQHKIAEMVALMEKHKHQYDKIIEERDSELGLYKSKEQEQSSLRASLEIELSNLKAELLSVKKQLEIEREEKEKLKREAKENTATLKEKKDKKTQTFLL
notes: synaptonemal complex protein 1 (SYCP1), human, coiled-coil domain region, residues 662 (D)-801 (L); A selenomethionine-substituted form was also made and crystallised; the final model holds residues 673-767 (chain A) and 673-769 (chain B); also called SYCP CC; wildtype; source: E. coli BL21 (pET24a), purified (Ni-NTA, Superdex 200 gel filtration); not shown: His tag, C-terminal, kept
Q: Which “stoichiometry N” value does the source give for B1 here?
A: 2
